# The nanobody polyreactivity screen of Harvey et al. (2022)
# Assay: yeast display, Sf9 membrane polyspecificity reagent, FACS + sequencing; frameworks hold sequencing errors
# Summary of the method: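 Using colony PCR, genes from sorted yeast display clones were amplified, then sequenced on MiSeq at 2 × 250 and filtered by CDR length. The clones had been stained with 10% biotinylated, detergent-solubilized Sf9 membrane reagent for 1 hour at 4 °C and sorted by FACS into low and high (top ~1%) gates on anti-HA and streptavidin fluorescence. Polyreactivity labels come from the gate of origin.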
row,Sequence,polyreactivity (PSR sort gate)
1,QVQLVESGGALVQAGGSLRLSCAASGYIFDRYAMGWYRQAPGKEWELVAAISGRGGSTYYADSVKGRFTISRDNAKNTVYLQMNSLKPEDTAVYYCAAARSWHLYHRYDYWGQGTQVTVSS,high polyreactivity
2,QVQLVESGGALVQAGGSLRLSCSASGSLFIYYAIRWYRQAPGKERELVAAISISGARTYYADSVKGRFTNSRDNAKNTVYLQMNSLKPEDTAVYYCNVSSRRLRGLDYWGQVTQVTVSS,low polyreactivity
3,QVQLVESGGALVQAGGSLRLSSAASGLTFYYYAMGRYRQAPGKERELVAAITGSGGRTYYADSVKGRFTISRDNAKNNVYLQMNSLKPEDTAVYYCAASWPNYLYEYWGQGTQVTVSS,high polyreactivity
4,QVQLVESGGALVQAGGSLRLTSAASGFTFFRNAMRWYRQAPGKERELVAAINWSGGSTYYADSVKGRFTISRDNAKNTVYLQMHSLKPEDTAVYFCAADLSSTESDYWRQGTQVTVSS,high polyreactivity
5,QVQLVESGGALVQAGVSLRLSCSASGSTFTKYAIRWYRQAPGKERELVAAITRGGSTTYADSVKGRFTISRDNAKNTVYLQMNSLKPEDTAVYFCNAQYQSGYYTSYPERFDYRGQGTQVTVSS,low polyreactivity
6,QVQLVESGGCIVQAGGSLRFSCAASGFTFNRYAMGWYRQAPGKERELVAAITRRGGSTYYADSVKGRFTISRDNAKNTVYFQMNSLKPEDTAVYYCNVDFQAYGIPMDYWGQGTQVNVSS,high polyreactivity
7,QVQLVESGGCLDQAGGSLRLSSAASGRIFFGYAMGWYRQAPGKEREFVAAISSVGSTNYADSVKGRFTISRDNAKNTVYLQMNSLKPEDTAVYYCAAAPRSGGKYGSDGGDYWGQGTQVTVSS,low polyreactivity
8,QVQLVESGGCLLQAGGSLRLSCAASGYIFERNAMGWYRQAPGKERELVAAITDDGDDTYYADSVKGRFTISRDNEKNTVYLQMNSLKPEDTAVYYCAKDLYYGDYYYWGQGTQVTVSS,low polyreactivity
9,QVQLVESGGCLVKAGCSLRLSCAASGRIFFVNAMGWYRPAPGKECELVAAISRGGSTNYADSVKGRFTISRDNAMNTVYLQMNILKPEDTEVYYCAAGYVRYPGVIDEYWGPGTQVTVSS,low polyreactivity
10,QVQLVESGGCLVQAGCSGRLSCAASGYTLTINVMGWDRQAPGKERELVAAITTSCASTNYADSVKGRFTISRDNAKNSVYLKMNSLKPEDTSVYYCAADYLSFVVVKLYGYWGQRTQVTVSS,low polyreactivity
11,QVQLVESGGCLVQAGCSLSLSCAASGITFRPYAMGWYRQAPGKERELVAAIRWDGGSTYYADSVKGRFTISRDNAKNTVYLQMNSMKPEDTAVDYCAAKRPTHVRKMDYWGQGTQVTVSS,high polyreactivity
12,QVQLVESGGCLVQAGGRLRLICAASGRTFFFNAMGWYRQAPGKERELVAAISRGGSRTFYADSVKGRFTISRDNEKNTVYLQMNSLKPEDNAVYYCNDVAQSGRYDYWGQGTQVTVSS,high polyreactivity
13,QVQLVESGGCLVQAGGRLRLSCAASGRIFRGYAMGWYRQAPGKERELVARITSGGRTYYADSVKGRFTISRDNAKNTVYLQMNSLKPEDTAVYYCAAPPSVRTRKAYYYWGQGTQVTVSS,high polyreactivity
14,QVQLVESGGCLVQAGGRLRLSCAASGYIFDRNAMGWYRQAPGTERELVAAITKRGGITYYADSVKGRFTISRDNAKFSGYLQMNSLKPEDTAVYYCNALARSSRYDYWGQGTQVTVSS,low polyreactivity
15,QVQLVESGGCLVQAGGSHRLSCAASGYIVWENAMGWYRPAPGKERELVAAITVTGGGTYYADSVKGRFTISRDNSKNPGYLHMNSLKPEDTAVYYCAPDEDNPWLWFYYWGQGTQVTVSS,low polyreactivity
16,QVQLVESGGCLVQAGGSHRLSCASSGRTFYRKAMGWYRQAPGKERELVAAISSGTSTNYADSVKGRFTISRDYAKNTVYLQMNSLKPEDTAVYYCAKERPRGAPAYYSRFYDYWGQGTQVTVSS,high polyreactivity
17,QVQLVESGGCLVQAGGSIRLSCAASGSIFKSNAMGWYRQAPGKERELVAAISNGGITNYADSVKVRFTISRDNAKNTDYLQMNSLKPEDTAVYYCNARNNYWWYCPGYDYWGQGTQLTVSS,low polyreactivity
